Experimental findings from patent publication US20220226425A1, “METHOD OF TREATING MELANOCORTIN-4 RECEPTOR PATHWAY-ASSOCIATED DISORDERS” (RHYTHM PHARMACEUTICALS, INC., priority 2015, published 2022) are described below.

The target of this assay is melanocortin 5 receptor (human) (UniProt P33032). Kind of assay: cell-based or functional assay.
Chain of melanocortin 5 receptor (human) (P33032 whole entry): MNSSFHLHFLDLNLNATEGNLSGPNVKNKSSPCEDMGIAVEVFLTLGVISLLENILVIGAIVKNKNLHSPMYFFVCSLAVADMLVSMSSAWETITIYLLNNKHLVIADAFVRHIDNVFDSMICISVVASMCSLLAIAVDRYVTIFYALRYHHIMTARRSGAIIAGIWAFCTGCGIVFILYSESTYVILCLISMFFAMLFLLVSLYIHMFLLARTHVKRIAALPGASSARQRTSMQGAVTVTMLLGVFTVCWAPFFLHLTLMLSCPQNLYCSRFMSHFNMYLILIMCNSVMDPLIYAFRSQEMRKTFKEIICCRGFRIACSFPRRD

In turn, RM-493 (peptide) had an EC-50 (nM), cAMP accumulation of 1680 nM.
